According to patent publication US7657380:

Target: EGFR extracellular domain (R&D Systems) (UniProt P00533 25-645, limits assumed)
Test: SPR, Fab over EGFR on CM5 chip

Kd [nM] | koff [s⁻¹] | kon [M⁻¹ s⁻¹] | Binder
0.257 | 2.53e-05 | 98600 | ICR62 WT Fab (Fab, V domains shown) VH: QVNLLQSGAALVKPGASVKLSCKGSGFTFTDYKIHWVKQSHGKSLEWIGYFNPNSGYSTYNEKFKSKATLTADKSTDTAYMELTSLTSEDSATYYCTRLSPGGYYVMDAWGQGASVTVSS VL: DIQMTQSPSFLSASVGDRVTINCKASQNINNYLNWYQQKLGEAPKRLIYNTNNLQTGIPSRFSGSGSGTDYTLTISSLQPEDFATYFCLQHNSFPTFGAGTKLELK
0.45 | 0.000106 | 235000 | ICR62 L2/H9 Fab (Fab, V domains shown) VH: QVQLQQSGPGLVKPGASVKVSCKGSGFTFTDYKIHWVRQAPGKSLEWMGYFNPNSGYSTYNEKFQGRVTITADKSTDTAYMELSSLRSEDTAVYYCTRLSPGGYYVMDAWGQGTLVTVSS VL: DIQMTQSPSSLSASVGDRVTITCRASQNINNYLNWYQQKPGKAPKRLIYNTNNLQTGIPSRFSGSGSGTDYTLTISSLQPEDFATYFCLQHNSFPTFGAGTKLEIK
